Key:
Assay in all cases: anti-FLAG co-IP LC-MS, exp 4, +Dox +IFNG
Desmin (Homo sapiens) = Desmin (Homo sapiens) (UniProt P17661)
[1] = target: Prolyl 4-hydroxylase subunit alpha-1 (Homo sapiens) (UniProt P13674)
[2] = target: Histone-binding protein RBBP7 (Homo sapiens) (UniProt Q16576)
[3] = target: ADP/ATP translocase 2 (Homo sapiens) (UniProt P05141)
[4] = target: Elongation factor 1-delta (Homo sapiens)
[5] = target: 60S acidic ribosomal protein P0 (Homo sapiens) (UniProt P05388)
[6] = target: Endonuclease domain-containing 1 protein (Homo sapiens) (UniProt O94919)
[7] = target: Ras GTPase-activating protein-binding protein 1 (Homo sapiens) (UniProt Q13283)
[8] = target: Serine/threonine-protein kinase 38 (Homo sapiens) (UniProt Q15208)
[9] = target: Spectrin beta chain (Homo sapiens) (UniProt Q01082)
[10] = target: Galectin-7 (Homo sapiens) (UniProt P47929)
[11] = target: 40S ribosomal protein S8 (Homo sapiens) (UniProt P62241)
[12] = target: 60 kDa heat shock protein, mitochondrial (Homo sapiens) (UniProt P10809)
[13] = target: 40S ribosomal protein S4, X isoform (Homo sapiens) (UniProt P62701)
[14] = target: 14-3-3 protein sigma (Homo sapiens) (UniProt P31947)
Filamin-A (Homo sapiens) = Filamin-A (Homo sapiens) (UniProt P21333)
[15] = target: Alpha-actinin-1 (Homo sapiens) (UniProt P12814)
[16] = target: Histone acetyltransferase type B catalytic subunit (Homo sapiens) (UniProt O14929)
[17] = target: Alpha-actinin-4 (Homo sapiens) (UniProt O43707)
[18] = target: Endoplasmic reticulum chaperone BiP (Homo sapiens) (UniProt P11021)
Nestin (Homo sapiens) = Nestin (Homo sapiens) (UniProt P48681)
[19] = target: Neuroblast differentiation-associated protein AHNAK (Homo sapiens) (UniProt Q09666)
[20] = target: Insulin-like growth factor 2 mRNA-binding protein 2 (Homo sapiens) (UniProt F8W930)
[21] = target: Dolichyl-diphosphooligosaccharide--protein glycosyltransferase subunit 1 (Homo sapiens) (UniProt P04843)
[22] = target: Heat shock 70 kDa protein 1B (Homo sapiens) (UniProt P0DMV9)
[23] = target: Tubulin alpha chain (Homo sapiens) (UniProt F5H5D3)
[24] = target: Tubulin beta-4B chain (Homo sapiens) (UniProt P68371)
[25] = target: Plasminogen activator inhibitor 1 (Homo sapiens) (UniProt P05121)
[26] = target: Serine/threonine-protein phosphatase 2A 65 kDa regulatory subunit A alpha isoform (Homo sapiens) (UniProt P30153)
[27] = target: Reticulon-4 (Homo sapiens) (UniProt Q9NQC3)
[28] = target: Prostate tumor-overexpressed gene 1 protein (Homo sapiens) (UniProt Q86YD1)
[29] = target: Eukaryotic initiation factor 4A-II (Homo sapiens) (UniProt Q14240)
[30] = target: Transportin-1 (Homo sapiens) (UniProt Q92973)
[31] = target: Protein disulfide-isomerase (Homo sapiens) (UniProt P07237)
[32] = target: Heterogeneous nuclear ribonucleoprotein H (Homo sapiens) (UniProt G8JLB6)
[33] = target: 60S ribosomal protein L8 (Homo sapiens) (UniProt P62917)
[34] = target: Tubulin beta-2A chain (Homo sapiens) (UniProt Q13885)
Chain of Tubulin beta-2A chain (Homo sapiens) (Q13885 whole entry): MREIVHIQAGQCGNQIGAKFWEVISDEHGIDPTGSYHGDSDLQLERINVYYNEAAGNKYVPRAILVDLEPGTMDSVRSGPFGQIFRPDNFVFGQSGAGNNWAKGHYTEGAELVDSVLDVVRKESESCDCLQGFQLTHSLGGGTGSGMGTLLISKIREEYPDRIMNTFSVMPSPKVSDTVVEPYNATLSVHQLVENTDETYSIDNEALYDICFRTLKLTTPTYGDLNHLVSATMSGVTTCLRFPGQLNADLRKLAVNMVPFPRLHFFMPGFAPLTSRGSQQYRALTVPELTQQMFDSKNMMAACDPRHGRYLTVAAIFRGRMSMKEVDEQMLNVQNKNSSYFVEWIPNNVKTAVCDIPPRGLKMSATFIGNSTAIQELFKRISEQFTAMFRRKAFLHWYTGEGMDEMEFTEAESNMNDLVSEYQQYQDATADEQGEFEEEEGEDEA

Chain of Transportin-1 (Homo sapiens) (Q92973 whole entry): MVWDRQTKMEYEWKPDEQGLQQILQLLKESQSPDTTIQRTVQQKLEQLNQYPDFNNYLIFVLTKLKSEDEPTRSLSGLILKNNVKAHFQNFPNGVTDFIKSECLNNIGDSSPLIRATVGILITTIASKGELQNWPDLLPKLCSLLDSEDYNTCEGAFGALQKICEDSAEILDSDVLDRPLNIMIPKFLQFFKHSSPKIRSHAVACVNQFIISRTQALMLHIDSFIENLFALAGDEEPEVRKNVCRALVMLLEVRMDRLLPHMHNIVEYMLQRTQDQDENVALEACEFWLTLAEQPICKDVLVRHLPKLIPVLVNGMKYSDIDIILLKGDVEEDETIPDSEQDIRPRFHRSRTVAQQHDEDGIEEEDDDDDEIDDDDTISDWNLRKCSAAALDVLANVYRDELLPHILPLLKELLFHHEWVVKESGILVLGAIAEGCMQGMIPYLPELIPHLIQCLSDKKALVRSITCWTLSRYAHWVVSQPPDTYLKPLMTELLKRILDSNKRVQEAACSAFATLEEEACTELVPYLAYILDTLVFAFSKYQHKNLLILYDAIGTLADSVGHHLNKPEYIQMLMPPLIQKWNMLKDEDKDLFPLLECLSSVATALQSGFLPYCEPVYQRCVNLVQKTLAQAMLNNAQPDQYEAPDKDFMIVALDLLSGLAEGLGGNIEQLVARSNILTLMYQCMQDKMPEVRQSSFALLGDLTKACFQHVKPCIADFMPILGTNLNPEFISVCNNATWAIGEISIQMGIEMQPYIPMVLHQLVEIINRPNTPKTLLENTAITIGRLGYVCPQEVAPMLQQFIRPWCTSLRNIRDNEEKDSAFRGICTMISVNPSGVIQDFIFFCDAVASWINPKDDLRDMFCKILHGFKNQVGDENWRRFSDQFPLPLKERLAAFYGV
Chain of Insulin-like growth factor 2 mRNA-binding protein 2 (Homo sapiens) (F8W930 entry or part of it limits assumed, form in doubt): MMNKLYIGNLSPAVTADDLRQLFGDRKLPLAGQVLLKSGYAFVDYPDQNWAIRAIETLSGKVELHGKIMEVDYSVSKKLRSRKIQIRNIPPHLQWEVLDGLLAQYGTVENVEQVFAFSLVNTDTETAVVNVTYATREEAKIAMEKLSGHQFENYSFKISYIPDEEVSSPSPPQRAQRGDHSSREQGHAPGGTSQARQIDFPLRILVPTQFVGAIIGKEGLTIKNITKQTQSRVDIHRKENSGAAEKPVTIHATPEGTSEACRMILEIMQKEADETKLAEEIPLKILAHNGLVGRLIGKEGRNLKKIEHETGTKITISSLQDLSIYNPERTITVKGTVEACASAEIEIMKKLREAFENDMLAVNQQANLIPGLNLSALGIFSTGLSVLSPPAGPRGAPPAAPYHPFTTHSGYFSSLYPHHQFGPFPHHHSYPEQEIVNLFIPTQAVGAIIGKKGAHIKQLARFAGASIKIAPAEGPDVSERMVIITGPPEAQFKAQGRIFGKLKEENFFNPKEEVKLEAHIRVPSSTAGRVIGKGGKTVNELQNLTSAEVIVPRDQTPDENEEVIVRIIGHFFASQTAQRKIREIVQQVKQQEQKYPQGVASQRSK
Chain of Ras GTPase-activating protein-binding protein 1 (Homo sapiens) (Q13283 2-466 limits assumed): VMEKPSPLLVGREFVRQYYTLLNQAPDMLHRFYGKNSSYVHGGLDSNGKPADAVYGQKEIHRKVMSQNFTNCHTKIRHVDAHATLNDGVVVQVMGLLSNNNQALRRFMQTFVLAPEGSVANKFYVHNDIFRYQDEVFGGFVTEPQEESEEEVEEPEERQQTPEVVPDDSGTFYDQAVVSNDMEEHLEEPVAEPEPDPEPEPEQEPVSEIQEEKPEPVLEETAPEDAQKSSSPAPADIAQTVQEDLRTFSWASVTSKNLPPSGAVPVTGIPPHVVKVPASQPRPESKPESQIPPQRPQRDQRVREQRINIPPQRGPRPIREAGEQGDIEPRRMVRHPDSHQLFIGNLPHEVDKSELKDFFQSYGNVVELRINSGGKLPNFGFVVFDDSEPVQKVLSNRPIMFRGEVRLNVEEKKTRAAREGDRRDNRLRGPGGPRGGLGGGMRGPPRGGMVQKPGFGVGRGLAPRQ
Chain of Protein disulfide-isomerase (Homo sapiens) (P07237 18-508 limits assumed): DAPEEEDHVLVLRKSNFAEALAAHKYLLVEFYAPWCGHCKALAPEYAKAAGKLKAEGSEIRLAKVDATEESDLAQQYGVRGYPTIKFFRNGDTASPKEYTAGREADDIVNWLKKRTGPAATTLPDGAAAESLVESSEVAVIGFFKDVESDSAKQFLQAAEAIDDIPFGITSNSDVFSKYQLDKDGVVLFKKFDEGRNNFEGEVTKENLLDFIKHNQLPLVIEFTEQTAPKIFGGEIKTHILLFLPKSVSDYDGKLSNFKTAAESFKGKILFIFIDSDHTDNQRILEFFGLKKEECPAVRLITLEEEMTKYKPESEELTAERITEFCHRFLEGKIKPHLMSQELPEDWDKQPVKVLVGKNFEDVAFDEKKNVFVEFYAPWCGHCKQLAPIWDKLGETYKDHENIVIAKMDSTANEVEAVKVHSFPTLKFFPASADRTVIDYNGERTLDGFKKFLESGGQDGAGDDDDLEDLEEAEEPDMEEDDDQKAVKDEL
Chain of Desmin (Homo sapiens) (P17661 2-470 limits assumed): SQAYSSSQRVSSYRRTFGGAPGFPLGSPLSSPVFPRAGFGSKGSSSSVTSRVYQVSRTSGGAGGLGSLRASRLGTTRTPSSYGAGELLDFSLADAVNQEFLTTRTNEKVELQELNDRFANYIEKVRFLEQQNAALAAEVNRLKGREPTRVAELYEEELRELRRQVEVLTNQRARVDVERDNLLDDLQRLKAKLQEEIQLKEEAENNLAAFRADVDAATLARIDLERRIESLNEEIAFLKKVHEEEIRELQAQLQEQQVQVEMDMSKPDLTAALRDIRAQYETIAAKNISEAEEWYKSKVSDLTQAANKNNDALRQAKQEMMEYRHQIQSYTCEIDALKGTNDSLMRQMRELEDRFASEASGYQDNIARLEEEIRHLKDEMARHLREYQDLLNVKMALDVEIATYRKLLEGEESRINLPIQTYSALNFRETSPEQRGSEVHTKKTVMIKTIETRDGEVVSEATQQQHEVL
Chain of Alpha-actinin-4 (Homo sapiens) (O43707 whole entry): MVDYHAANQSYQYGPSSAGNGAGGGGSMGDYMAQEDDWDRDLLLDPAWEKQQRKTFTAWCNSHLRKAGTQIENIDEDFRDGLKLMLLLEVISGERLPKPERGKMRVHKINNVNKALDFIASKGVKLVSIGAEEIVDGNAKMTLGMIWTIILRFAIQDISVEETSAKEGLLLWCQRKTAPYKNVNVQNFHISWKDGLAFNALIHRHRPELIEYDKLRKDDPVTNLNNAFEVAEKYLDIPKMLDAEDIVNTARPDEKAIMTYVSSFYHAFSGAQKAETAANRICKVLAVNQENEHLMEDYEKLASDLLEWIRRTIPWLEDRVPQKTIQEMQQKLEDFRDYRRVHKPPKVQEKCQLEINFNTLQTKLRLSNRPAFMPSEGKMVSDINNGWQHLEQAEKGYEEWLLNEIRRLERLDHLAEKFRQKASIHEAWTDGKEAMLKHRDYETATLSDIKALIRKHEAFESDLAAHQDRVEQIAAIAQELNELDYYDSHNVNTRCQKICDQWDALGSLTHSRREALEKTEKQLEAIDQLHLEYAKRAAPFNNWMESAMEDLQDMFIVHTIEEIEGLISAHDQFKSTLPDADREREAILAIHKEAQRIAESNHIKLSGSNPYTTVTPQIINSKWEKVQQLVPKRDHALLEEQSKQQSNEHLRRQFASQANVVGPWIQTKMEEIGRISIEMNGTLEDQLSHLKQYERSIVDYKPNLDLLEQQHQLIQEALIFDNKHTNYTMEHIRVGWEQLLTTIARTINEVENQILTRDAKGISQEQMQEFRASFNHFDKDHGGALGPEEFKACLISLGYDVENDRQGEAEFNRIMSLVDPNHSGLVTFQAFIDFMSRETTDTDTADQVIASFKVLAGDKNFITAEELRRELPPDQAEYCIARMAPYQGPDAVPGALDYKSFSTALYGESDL
Chain of Dolichyl-diphosphooligosaccharide--protein glycosyltransferase subunit 1 (Homo sapiens) (P04843 24-607 limits assumed): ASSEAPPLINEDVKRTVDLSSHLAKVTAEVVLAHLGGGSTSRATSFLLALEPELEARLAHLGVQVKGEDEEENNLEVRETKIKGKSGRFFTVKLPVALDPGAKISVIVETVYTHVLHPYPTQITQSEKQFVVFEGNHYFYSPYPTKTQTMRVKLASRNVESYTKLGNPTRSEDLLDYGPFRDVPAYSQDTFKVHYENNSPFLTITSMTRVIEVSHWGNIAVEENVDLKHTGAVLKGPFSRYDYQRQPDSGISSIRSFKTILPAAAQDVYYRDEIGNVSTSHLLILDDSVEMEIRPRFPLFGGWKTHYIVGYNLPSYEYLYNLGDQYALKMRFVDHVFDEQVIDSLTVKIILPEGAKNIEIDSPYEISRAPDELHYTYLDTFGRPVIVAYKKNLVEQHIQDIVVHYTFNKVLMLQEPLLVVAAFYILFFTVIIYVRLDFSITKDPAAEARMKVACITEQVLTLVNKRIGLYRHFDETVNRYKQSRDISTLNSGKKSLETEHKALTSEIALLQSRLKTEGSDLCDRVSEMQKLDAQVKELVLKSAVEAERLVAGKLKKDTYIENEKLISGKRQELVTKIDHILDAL
Chain of Galectin-7 (Homo sapiens) (P47929 whole entry): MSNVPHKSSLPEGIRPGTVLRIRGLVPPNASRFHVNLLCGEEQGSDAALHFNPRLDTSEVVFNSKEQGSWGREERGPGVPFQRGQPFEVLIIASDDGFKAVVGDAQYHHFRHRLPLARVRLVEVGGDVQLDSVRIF

i3XFLAG-NLS-CTDaa154-424 was tested, and the PSMs (Desmin (Homo sapiens)) was 12 PSMs, the PSMs [1] was 9 PSMs and the PSMs [2] was 5 PSMs. It also gave a PSMs [3] of 6 PSMs, a PSMs [4] of 11 PSMs and a PSMs [5] of 36 PSMs. It also gave a PSMs [6] of 2 PSMs, a PSMs [7] of 2 PSMs and a PSMs [8] of 6 PSMs. The PSMs [9] was 3 PSMs, the PSMs [10] was 6 PSMs and the PSMs [11] was 2 PSMs. For the same substance, the PSMs [12] was 5 PSMs, the PSMs [13] was 3 PSMs and the PSMs [14] was 6 PSMs. For the same substance, the PSMs (Filamin-A (Homo sapiens)) was 10 PSMs, the PSMs [15] was 34 PSMs and the PSMs [16] was 9 PSMs. For the same substance, the PSMs [17] was 46 PSMs, the PSMs [18] was 44 PSMs and the PSMs (Nestin (Homo sapiens)) was 2 PSMs. The PSMs [19] was 1 PSMs, the PSMs [20] was 2 PSMs and the PSMs [21] was 2 PSMs. It also gave a PSMs [22] of 29 PSMs, a PSMs [23] of 25 PSMs and a PSMs [24] of 100 PSMs. For the same substance, the PSMs [25] was 3 PSMs, the PSMs [26] was 2 PSMs and the PSMs [27] was 6 PSMs. The PSMs [28] was 2 PSMs, the PSMs [29] was 6 PSMs and the PSMs [30] was 3 PSMs. It also gave a PSMs [31] of 14 PSMs, a PSMs [32] of 3 PSMs and a PSMs [33] of 2 PSMs. The PSMs [34] was 99 PSMs.

Source: patent US20250339531A1, “DUX4 POLYPEPTIDES AND NUCLEIC ACIDS FOR TREATING INFLAMMATORY AND AUTOIMMUNE CONDITIONS” (Fred Hutchinson Cancer Center, priority 2021, published 2025)
